Common to all, as to type: biochemical
Data set [1] is described as follows: Carboxylate reductase activity assay, pimelate to pimelate semialdehyde (NADPH consumption). The following applies: 2 mM pimelate, enhanced by gene product of sfp, room temperature, 20 min, against empty vector control, FIG. 10. As to the method: A sequence encoding a HIS-tag was added to the genes from Segniliparus rugosus and Segniliparus rotundus that encode the carboxylate reductases of SEQ ID NOs: 4 and 7, respectively (see FIG. 7), such that N-terminal HIS tagged carboxylate reductases could be produced. Each of the modified genes was cloned into a pET Duet expression vector along with a sfp gene encoding a HIS-tagged phosphopantetheine transferase from Bacillus subtilis, both under the T7 promoter. Each expression vector was transformed into a BL21[DE3] E. coli host and the resulting recombinant E. coli strains were cultivated at 37° C. in a 250 mL shake flask culture containing 50 mL LB media and antibiotic selection pressure, with shaking at 230 rpm. Each culture was induced overnight at 37° C. using an auto-induction media.
The pellet from each induced shake flask culture was harvested via centrifugation. Each pellet was resuspended and lysed via sonication, and the cell debris was separated from the supernatant via centrifugation. […]
Enzyme activity assays (i.e., from pimelate to pimelate semialdehyde) were performed in triplicate in a buffer composed of a final concentration of 50 mM HEPES buffer (pH=7.5), 2 mM pimelate, 10 mM MgCl2, 1 mM ATP and 1 mM NADPH. […] The consumption of NADPH was monitored by absorbance at 340 nm.

Data set [2] can be described thus: Carboxylate reductase activity assay, N7-acetyl-7-aminoheptanoate to N7-acetyl-7-aminoheptanal (NADPH consumption). The following applies: 2 mM N7-acetyl-7-aminoheptanoate, enhanced by gene product of sfp, room temperature, 20 min, against empty vector control, FIG. 12. As to the method:
The activity of each of the N-terminal His-tagged carboxylate reductases of SEQ ID NOs: 3, 6, and 7 (see Examples 4, and FIG. 7) for converting N7-acetyl-7-aminoheptanoate to N7-acetyl-7-aminoheptanal was assayed in triplicate in a buffer composed of a final concentration of 50 mM HEPES buffer (pH=7.5), 2 mM N7-acetyl-7-aminoheptanoate, 10 mM MgCl2, 1 mM ATP, and 1 mM NADPH. The assays were initiated by adding purified carboxylate reductase and phosphopantetheine transferase or the empty vector control to the assay buffer containing the N7-acetyl-7-aminoheptanoate then incubated at room temperature for 20 min. The consumption of NADPH was monitored by absorbance at 340 nm.

The nature of data set [3]: Carboxylate reductase activity assay, pimelate semialdehyde to heptanedial (NADPH consumption). The following applies: 2 mM pimelate semialdehyde, enhanced by gene product of sfp, room temperature, 20 min, against empty vector control, FIG. 13. How it is done: The N-terminal His-tagged carboxylate reductase of SEQ ID NO 7 (see Example 4 and FIG. 7) was assayed using pimelate semialdehyde as substrate. The enzyme activity assay was performed in triplicate in a buffer composed of a final concentration of 50 mM HEPES buffer (pH=7.5), 2 mM pimelate semialdehyde, 10 mM MgCl2, 1 mM ATP and 1 mM NADPH. The enzyme activity assay reaction was initiated by adding purified carboxylate reductase and phosphopantetheine transferase or the empty vector control to the assay buffer containing the pimelate semialdehyde and then incubated at room temperature for 20 min. The consumption of NADPH was monitored by absorbance at 340 nm.

The record followed here is US9580731B2, “Methods of producing 7-carbon chemicals via c1 carbon chain elongation associated with coenzyme B synthesis” (INVISTA North America S.á r.l., priority 2012, dated 2017).

B1: SEQ ID NO 7: Segniliparus rotundus carboxylate reductase, Genbank Accession No. ADG98140.1 (protein, listed as Segniliparus rotundus)
chain: MTQSHTQGPQASAAHSRLARRAAELLATDPQAAATLPDPEVVRQATRPGLRLAERVDAILSGYADRPALGQRSFQTVKDPITGRSSVELLPTFDTITYRELRERATAIASDLAHHPQAPAKPGDFLASIGFISVDYVAIDIAGVFAGLTAVPLQTGATLATLTAITAETAPTLFAASIEHLPTAVDAVLATPSVRRLLVFDYRAGSDEDREAVEAAKRKIADAGSSVLVDVLDEVIARGKSAPKAPLPPATDAGDDSLSLLIYTSGSTGTPKGAMYPERNVAHFWGGVWAAAFDEDAAPPVPAINITFLPLSHVASRLSLMPTLARGGLMHFVAKSDLSTLFEDLKLARPTNLFLVPRVVEMLYQHYQSELDRRGVQDGTREAEAVKDDLRTGLLGGRILTAGFGSAPLSAELAGFIESLLQIHLVDGYGSTEAGPVWRDGYLVKPPVTDYKLIDVPELGYFSTDSPHPRGELAIKTQTILPGYYKRPETTAEVFDEDGFYLTGDVVAQIGPEQFAYVDRRKNVLKLSQGEFVTLAKLEAAYSSSPLVRQLFVYGSSERSYLLAVIVPTPDALKKFGVGEAAKAALGESLQKIARDEGLQSYEVPRDFIIETDPFTVENGLLSDARKSLRPKLKEHYGERLEAMYKELADGQANELRDIRRGVQQRPTLETVRRAAAAMLGASAAEIKPDAHFTDLGGDSLSALTFSNFLHDLFEVDVPVGVIVSAANTLGSVAEHIDAQLAGGRARPTFATVHGKGSTTIKASDLTLDKFIDEQTLEAAKHLPKPADPPRTVLLTGANGWLGRFLALEWLERLAPAGGKLITIVRGKDAAQAKARLDAAYESGDPKLAGHYQDLAATTLEVLAGDFSEPRLGLDEATWNRLADEVDFISHPGALVNHVLPYNQLFGPNVAGVAEIIKLAITTRIKPVTYLSTVAVAAGVEPSALDEDGDIRTVSAERSVDEGYANGYGNSKWGGEVLLREAHDRTGLPVRVFRSDMILAHQKYTGQVNATDQFTRLVQSLLATGLAPKSFYELDAQGNRQRAHYDGIPVDFTAESITTLGGDGLEGYRSYNVFNPHRDGVGLDEFVDWLIEAGHPITRIDDYDQWLSRFETSLRGLPESKRQASVLPLLHAFARPGPAVDGSPFRNTVFRTDVQKAKIGAEHDIPHLGKALVLKYADDIKQLGLL
As for B1, in data set [1], the “carboxylate reductase activity for converting pimelate to pimelate semialdehyde (NADPH consumption, absorbance at 340 nm)” value is recorded as “accepted pimelate as substrate”. Also, the “carboxylate reductase activity for converting N7-acetyl-7-aminoheptanoate to N7-acetyl-7-aminoheptanal (NADPH consumption, absorbance at 340 nm)” value in data set [2] is listed as “accepted N7-acetyl-7-aminoheptanoate as substrate”. In data set [3], the “carboxylate reductase activity for converting pimelate semialdehyde to heptanedial (NADPH consumption, absorbance at 340 nm)” value was “accepted pimelate semialdehyde as substrate”.
